{
  "source": "the RNAGym collection of RNA variant scans (doi:10.7554/elife.80360)",
  "parents": {"B1": {"name": "Hammerhead Ribozyme (parent)", "chain": "ACCGGAUGUGCUUUCCGGUCUGAUGAGUCCGUGAGGACGAAACAG"}},
  "data": [
    {"variants_of": "B1", "experiment": "self-cleavage, relative activity (ratio to wild type); higher = more cleavage; co-transcriptional", "values": [
      {"variant": "U7A C30U", "self-cleavage": 1.05},
      {"variant": "U7A C30A", "self-cleavage": 1.09},
      {"variant": "A41C C43G", "self-cleavage": 0.408},
      {"variant": "G8A G39U", "self-cleavage": 0.369},
      {"variant": "G4C U14C", "self-cleavage": 0.475},
      {"variant": "A1G U24C", "self-cleavage": 1.6},
      {"variant": "A23C G27U", "self-cleavage": 0.256},
      {"variant": "U12A U24C", "self-cleavage": 0.727},
      {"variant": "U24G C30G", "self-cleavage": 0.727},
      {"variant": "C11U U13A", "self-cleavage": 1.34},
      {"variant": "C29G G33C", "self-cleavage": 0.654},
      {"variant": "U24G A26U", "self-cleavage": 0.718},
      {"variant": "G5A U7G", "self-cleavage": 1.56},
      {"variant": "G8A C16U", "self-cleavage": 1.13},
      {"variant": "U9C C29G", "self-cleavage": 0.601},
      {"variant": "G5A U9C", "self-cleavage": 1.37},
      {"variant": "C20U A40C", "self-cleavage": 0.407},
      {"variant": "C20A A42C", "self-cleavage": 0.335},
      {"variant": "U14G U19G", "self-cleavage": 0.422},
      {"variant": "G10U C15A", "self-cleavage": 0.817},
      {"variant": "U21G G22C", "self-cleavage": 0.292},
      {"variant": "C3G C38A", "self-cleavage": 0.279},
      {"variant": "A6U A34G", "self-cleavage": 0.786},
      {"variant": "G8A C15A", "self-cleavage": 0.937},
      {"variant": "G10A G17U", "self-cleavage": 0.986},
      {"variant": "A1C C16U", "self-cleavage": 0.347},
      {"variant": "A1C C16A", "self-cleavage": 0.453},
      {"variant": "U9A A37C", "self-cleavage": 1.02},
      {"variant": "C29G G36U", "self-cleavage": 1.01},
      {"variant": "A37U A40G", "self-cleavage": 0.284},
      {"variant": "C29U A34C", "self-cleavage": 0.723},
      {"variant": "A23G A42U", "self-cleavage": 0.335},
      {"variant": "U9A C43U", "self-cleavage": 0.337},
      {"variant": "A26C A40C", "self-cleavage": 0.274},
      {"variant": "U28C G35U", "self-cleavage": 0.431},
      {"variant": "U7G G22A", "self-cleavage": 0.33},
      {"variant": "G31U A41C", "self-cleavage": 0.388},
      {"variant": "C2U U12G", "self-cleavage": 1.21},
      {"variant": "C43G G45U", "self-cleavage": 0.835},
      {"variant": "C15U C38A", "self-cleavage": 0.677},
      {"variant": "U7C G25A", "self-cleavage": 0.402},
      {"variant": "A37G G45U", "self-cleavage": 0.567},
      {"variant": "C2A G35C", "self-cleavage": 0.429},
      {"variant": "G35C A37G", "self-cleavage": 0.563},
      {"variant": "G22U G35U", "self-cleavage": 0.366},
      {"variant": "U7C G18C", "self-cleavage": 0.342},
      {"variant": "U14G A42C", "self-cleavage": 0.382},
      {"variant": "C11U C30A", "self-cleavage": 0.765},
      {"variant": "C11U G36A", "self-cleavage": 0.607},
      {"variant": "G8C G25A", "self-cleavage": 0.284},
      {"variant": "G17A U32G", "self-cleavage": 0.613},
      {"variant": "G17C G27A", "self-cleavage": 0.446},
      {"variant": "U19A G27U", "self-cleavage": 0.26},
      {"variant": "G17U A41U", "self-cleavage": 0.327},
      {"variant": "G22A G27A", "self-cleavage": 0.342},
      {"variant": "C11U U21A", "self-cleavage": 0.697},
      {"variant": "C11U U21G", "self-cleavage": 0.563},
      {"variant": "U12G A23C", "self-cleavage": 0.459},
      {"variant": "C3U U14A", "self-cleavage": 0.71},
      {"variant": "G17A G45C", "self-cleavage": 0.385},
      {"variant": "G31C A44C", "self-cleavage": 0.441},
      {"variant": "G8U C30A", "self-cleavage": 0.803},
      {"variant": "G10U A44C", "self-cleavage": 0.534},
      {"variant": "G10U A26U", "self-cleavage": 0.873},
      {"variant": "G10A C16U", "self-cleavage": 0.971},
      {"variant": "C2U U32A", "self-cleavage": 0.97},
      {"variant": "G17C U24G", "self-cleavage": 0.462},
      {"variant": "U7G A44U", "self-cleavage": 0.422},
      {"variant": "C2G U9G", "self-cleavage": 0.32},
      {"variant": "C15U G17A", "self-cleavage": 0.556},
      {"variant": "U32G C43A", "self-cleavage": 0.256},
      {"variant": "U14A G45C", "self-cleavage": 0.636},
      {"variant": "G18C G45U", "self-cleavage": 0.374},
      {"variant": "C20U A41G", "self-cleavage": 0.349},
      {"variant": "A1U A44G", "self-cleavage": 0.971},
      {"variant": "U13G U14A", "self-cleavage": 0.428},
      {"variant": "A37U", "self-cleavage": 0.799},
      {"variant": "U13C U32G", "self-cleavage": 0.808},
      {"variant": "A34U G39C", "self-cleavage": 0.351},
      {"variant": "G27A A34U", "self-cleavage": 0.574},
      {"variant": "G27A A34G", "self-cleavage": 0.513},
      {"variant": "A6U A44C", "self-cleavage": 0.455},
      {"variant": "U19C G33C", "self-cleavage": 0.38},
      {"variant": "A1U A41G", "self-cleavage": 0.414},
      {"variant": "U32A C43A", "self-cleavage": 0.347},
      {"variant": "U32A C43U", "self-cleavage": 0.595},
      {"variant": "A23C C38G", "self-cleavage": 0.371},
      {"variant": "G17C U19A", "self-cleavage": 0.335},
      {"variant": "C2G U14A", "self-cleavage": 0.314},
      {"variant": "C16G U32C", "self-cleavage": 0.717},
      {"variant": "U13G U32C", "self-cleavage": 0.986},
      {"variant": "C20U G39C", "self-cleavage": 0.362},
      {"variant": "G8U C15A", "self-cleavage": 0.884},
      {"variant": "G4U U7G", "self-cleavage": 0.381},
      {"variant": "U19A C20A", "self-cleavage": 0.287},
      {"variant": "A6C G10U", "self-cleavage": 1.01},
      {"variant": "G4A A34C", "self-cleavage": 0.35},
      {"variant": "U13G G25A", "self-cleavage": 0.367},
      {"variant": "U28C A37C", "self-cleavage": 0.467},
      {"variant": "U21A U32G", "self-cleavage": 0.515},
      {"variant": "C16A C29A", "self-cleavage": 0.417},
      {"variant": "G36C A42G", "self-cleavage": 0.272},
      {"variant": "U28G G45C", "self-cleavage": 0.412},
      {"variant": "U9A G31A", "self-cleavage": 0.825},
      {"variant": "U19C A40G", "self-cleavage": 0.332},
      {"variant": "G33C G36U", "self-cleavage": 0.338},
      {"variant": "G33C G36A", "self-cleavage": 0.491},
      {"variant": "G18A A23C", "self-cleavage": 0.355},
      {"variant": "C29A C38G", "self-cleavage": 0.281},
      {"variant": "G5C U9G", "self-cleavage": 0.467},
      {"variant": "U32C G36U", "self-cleavage": 0.73},
      {"variant": "A6G G25C", "self-cleavage": 0.283},
      {"variant": "U13A A37G", "self-cleavage": 1.15},
      {"variant": "C2G G17C", "self-cleavage": 0.329},
      {"variant": "U9A A26G", "self-cleavage": 0.368},
      {"variant": "A1C U19A", "self-cleavage": 0.344},
      {"variant": "G4U U12C", "self-cleavage": 0.496},
      {"variant": "G33U A34U", "self-cleavage": 0.952},
      {"variant": "U7C C29G", "self-cleavage": 0.514},
      {"variant": "U21A G33A", "self-cleavage": 0.808},
      {"variant": "U9G A34G", "self-cleavage": 1.04},
      {"variant": "G22A A40C", "self-cleavage": 0.371},
      {"variant": "C11G G31U", "self-cleavage": 1.34},
      {"variant": "U9A G27A", "self-cleavage": 0.841},
      {"variant": "G17A G33A", "self-cleavage": 0.794},
      {"variant": "A6G C16G", "self-cleavage": 0.537},
      {"variant": "G4C A42U", "self-cleavage": 0.297},
      {"variant": "G36A A37C", "self-cleavage": 0.414},
      {"variant": "C15G A41C", "self-cleavage": 0.398},
      {"variant": "U9A A23G", "self-cleavage": 0.324},
      {"variant": "G36C A44U", "self-cleavage": 0.296},
      {"variant": "U21A G35C", "self-cleavage": 0.492},
      {"variant": "C11U C43G", "self-cleavage": 0.392},
      {"variant": "U7G U28C", "self-cleavage": 1.36},
      {"variant": "G22U G36C", "self-cleavage": 0.363},
      {"variant": "A34G G36A", "self-cleavage": 0.51},
      {"variant": "A1C G39A", "self-cleavage": 0.438},
      {"variant": "C16A", "self-cleavage": 1.21},
      {"variant": "U28C G45A", "self-cleavage": 0.628},
      {"variant": "U12G U32G", "self-cleavage": 0.813},
      {"variant": "C3U U13G", "self-cleavage": 0.866},
      {"variant": "C16A U19A", "self-cleavage": 0.34},
      {"variant": "A26U C38G", "self-cleavage": 0.318},
      {"variant": "G22U A23U", "self-cleavage": 0.307},
      {"variant": "C3G U19C", "self-cleavage": 0.31},
      {"variant": "A26G G27U", "self-cleavage": 0.322},
      {"variant": "U9A A34G", "self-cleavage": 0.751},
      {"variant": "U32G G39U", "self-cleavage": 0.317},
      {"variant": "G36C A40U", "self-cleavage": 0.346},
      {"variant": "U21G G36C", "self-cleavage": 0.365},
      {"variant": "G10U G27A", "self-cleavage": 0.825},
      {"variant": "A1G A6U", "self-cleavage": 1.08},
      {"variant": "A1C C2U", "self-cleavage": 2.17},
      {"variant": "C11G A41C", "self-cleavage": 0.366},
      {"variant": "U9A G36U", "self-cleavage": 0.505},
      {"variant": "G4U C38U", "self-cleavage": 0.315},
      {"variant": "A1U G5U", "self-cleavage": 0.354},
      {"variant": "U14G U28A", "self-cleavage": 0.796},
      {"variant": "G8A G25U", "self-cleavage": 0.353},
      {"variant": "C29G G45U", "self-cleavage": 0.458},
      {"variant": "C29U G36C", "self-cleavage": 0.603},
      {"variant": "A26G U28G", "self-cleavage": 0.335},
      {"variant": "G5U G39C", "self-cleavage": 0.306},
      {"variant": "G4C U9C", "self-cleavage": 0.704},
      {"variant": "G8U A44G", "self-cleavage": 1.37},
      {"variant": "U24A G27A", "self-cleavage": 0.7},
      {"variant": "C2A U28C", "self-cleavage": 0.417}
    ]}
  ]
}
